# Data as given in US20040175379A1 (AbbVie / Abbott, published 2004).
# T1: biotinylated EpoR (Abbott CHO cell derived ref.#RB69084:4) (UniProt P19235 25-250, limits assumed, biotinylated with biotin-NHS (sites not given))
# T1 construct: also called biotin EpoR; biotin-EpoR
# T1 sequence (looked up): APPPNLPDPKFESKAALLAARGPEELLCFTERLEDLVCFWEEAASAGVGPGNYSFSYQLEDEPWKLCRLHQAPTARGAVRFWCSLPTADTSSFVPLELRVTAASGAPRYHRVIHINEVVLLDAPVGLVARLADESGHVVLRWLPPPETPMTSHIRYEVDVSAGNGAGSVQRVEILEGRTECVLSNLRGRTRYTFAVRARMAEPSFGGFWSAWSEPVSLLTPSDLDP
# T2: soluble human EPO receptor (human, UniProt P19235 25-250, limits assumed)
# T2 construct: Only called 'soluble'
# T2 sequence (looked up): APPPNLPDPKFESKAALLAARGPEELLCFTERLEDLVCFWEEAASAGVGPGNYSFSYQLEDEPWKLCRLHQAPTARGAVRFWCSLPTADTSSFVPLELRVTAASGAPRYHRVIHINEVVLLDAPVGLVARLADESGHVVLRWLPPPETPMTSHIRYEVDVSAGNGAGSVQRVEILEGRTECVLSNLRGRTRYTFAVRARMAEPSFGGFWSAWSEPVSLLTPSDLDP
# Assays:
# [1] = biological target: T1, biotinylated EpoR (Abbott CHO cell …); assay: ELISA, biotin-EpoR on streptavidin plate, HEK 293 supernatant titrated 1:2
# Procedure: The ELISA for antigen specific antibody secretion was performed as follows. Control plates were coated with […] Goat anti-human IgG H+L O/N. For the binding plates, biotin-EpoR (0.7 mcg/mL) was coated onto streptavadin 96 well plates (Sigma, St Louis, Mo.) for one hour at room temperature. The plates were washed five times with dH₂O. Recombinant antibodies were titrated 1:2 for 7 wells from the undiluted minilipofection supernatant. The plates were washed five times with dH₂O. A goat anti-human IgG Fc-specific HRP-conjugated antibody was added at a final concentration of 1 ug/mL for 1 hour at RT for the secretion and the binding ELISA. The plates were washed five times with dH₂O. The plates were developed with the addition of TMB chromogenic substrate (KPL, Gaithersburg, Md.) for 30 minutes and the ELISA was stopped by the addition of 1 M phosphoric acid. Each ELISA plate was analyzed to determine the optical density of each well at 450 nm.
# [2] = biological target: T2, soluble human EPO receptor; assay: SPR (Biacore 2000), antibody immobilised on the chip, soluble receptor 10-200 nM injected
# Procedure: Immobilizations of antibody were performed using the default immobilization program in the Biacore software package. Antibodies were diluted to 10 ug/mL in the supplied acetate buffers to prescreen for the appropriate pH at which to conduct the immobilizations. For immobilizations, antibodies were diluted into the appropriate acetate buffer (10 mM acetate pH 4.0) and coupled directly to the chip surface using standard EDC chemistry at three different protein levels (500, 1000, and 1500 RU). The fourth flow cell was mock coupled with EDC to cap the carboxyl groups and provide a background surface as a negative control.
# Binding studies were performed by successive injections of varying concentrations of soluble human EPO receptor over the chip surface (500 RU immobilized protein). […]
# Data were fit to the models available in the BiaEvaluation 3.0.2 software package (Biacore). […] Dissociation constants were calculated directly from fitting to the Langmuir binding model. For the bivalent analyte model, the dissociation constants were calculated indirectly using the calculated values for the kinetic dissociation and kinetic association constants, kd and kₐ.
Binding (dilution of the supernatant in ELISA) [1],Kd [2] [nM],Binder
8 1:n dilution of supernatant,,"human anti-EPO-R antibody expressed by the cell line designated ABT2-SCX-254 (antibody, human IgG2, V domains shown, also called Ab254) VH: QVQLVESGGGVVQPGRSLRLSCAASGFTFSSYGMHWVRQAPGKGLEWVAVIWFDGNNKFYADSVKGRFTISRDNSKNTLYLQMNSLRVEDTAVYYCARGGSYWDYWGQGTLVTVSS VL: DIVMTQTPLFSFVMIGQPASISCRSRQSLVHSDGNTYLNWLQQRPGQPPRLLIYKTSNRFSGVPDRFSGSGAGTDFTLKISRVEAEDVGVYYCMQATQFPITFGQGTRLEIK"
> 64 1:n dilution of supernatant,,"human anti-EPO-R antibody expressed by the cell line designated ABT2-SCX-054 (antibody, V domains shown, also called ABT2-SCX-54; Ab54) VH: QVQLVESGGGVVQPGRSLRLSCAASGFTFSKYGMHWVRQAPGKGLEWVAVLWYDGSNKYYADSVKGRFTISRDNSKNTLYLQMNSLRAEDTAVYYCARGPYYFDYWGQGTLVTVSS VL: not shown"
> 64 1:n dilution of supernatant,17.5,"Ab12 (human anti-EPO-R antibody expressed by the cell line designated ABT2-SCX-012) (antibody, human IgG2, V domains shown, also called AB-ABT2-XG2-012; ABT2-XG2-012) VH: QVQLQESGPGLVKPSETLSLTCTVSGASISSYYWSWIRQPPGKGLEWIGYIYYSGSTNYNPSLKSRVTISVDTSKNQFSLKLRSVTAADTAVYYCARERLGIGDYWGQGTLVTVSS VL: DIQLTQSPSSLSASVGDRVTITCRASQGIRNDLGWYQQKPGKAPKRLIYAASSLQSGVPSRFSGSGSGTEFTLTISSLQPEDFATYYCLQHNTYPPTFGQGTKVEIK"
> 64 1:n dilution of supernatant,,"human anti-EPO-R antibody expressed by the cell line designated ABT2-SCX-060 (antibody, human IgG2, V domains shown, also called Ab60) VH: QVQLVESGGGVVQPGRSLRLSCAASGFTFSSYGMHWVRQAPGKGLEWVAVISYDGSNKYYADSVKGRFTISRDNSKNTLYLQMNSLRVEDTAVYYCARDHGGRYVYDYGMDVWGQGTTVTVSS VL: DIQMTQSPSSVSASVGDRVSITCRASQGISSWLAWYQQKPGKAPTLLIYAASSLQRGVPSRFSGSGSGTDFTLTISSLQPEDFATYFCQQANSFPFTFGPGTKVDIK"
4 1:n dilution of supernatant,,"human anti-EPO-R antibody expressed by the cell line designated ABT2-SCX-135 (antibody, human IgG2, V domains shown, also called Ab135) VH: QVQLVESGGGVVQPGRSLRLSCAASGFTFSSYGMHWVRQAPGKGLEWVAVISYDGSNKYYADSVKGRFTISRDNSKNTLYLQMNSLRVEDTAVYYCARDHGGRYVYDYGMDVWGQGTTVTVSS VL: DIQMTQSPSSVSTSVGDRVSITCRASQGIGSWLAWYQQKPGQAPTLLIYAASSLQRGVPSRFSGSGSGTDFTLTINSLQPEDFATYFCQQANSFPFTFGPGTKVDVK"
> 64 1:n dilution of supernatant,13.9,"Ab198 (human anti-EPO-R antibody expressed by the cell line designated ABT2-SCX-198) (antibody, human IgG2, V domains shown) VH: QVQLVESGGGVVQPGRSLRLSCVASGFTFSSYGMHWVRQAPGKGLEWVAVISYDGSNKYYADSVKGRFTISRDNSKNTLYLQMNSLRVEDTAVYYCARDHGGRYVYDYGMDVWGQGTTVTVSS VL: DIQMTQSPSSVSASIGDRVSITCRASQGISSWLAWYQQKPGKAPTLLIYAASTLQRGVPSRFSGSGSGTDFTLTISSLQPEDFATYFCQQANSFPFTFGPGTKVDIK"
> 64 1:n dilution of supernatant,,"human anti-EPO-R antibody expressed by the cell line designated ABT2-SCX-022 (antibody, human IgG2, V domains shown, also called Ab22) VH: QVQLVESGGGVVQPGRSLRLSCAASGFTFSSYGMHWVRQAPGKGLEWVVVISYDGSNKYYADSVKGRFTISRDNSKNTLYLQMNSLRVEDTAVYYCARDHGGRYVYDYGMDVWGQGTTVTVSS VL: DIQMTQSPSSVSASVGDRVSITCRASQGISSWLAWYQQKPGKAPTLLIYAASSLQRGVPSRFSGSGSGTDFTLTISSLQPEDFATYFCQQANSFPFTFGPGTKVDIK"
> 64 1:n dilution of supernatant,,"human anti-EPO-R antibody expressed by the cell line designated ABT2-SCX-003 (antibody, human IgG2, V domains shown, also called Ab3) VH: QVQLVESGGGVVQPGRSLRLSCAASGFTFSSYGMHWVRQAPGKGLEWVAVISYDGSNKYYADSVKGRFTISRDNSKNTLYLQMNSLRVEDTAVYYCARDHGGRYVYDYGMDVWGQGTTVTVSS VL: DIQMTQSPSSVSASVGDRVSITCRASQGISSWLVWYQQKPGKAPALLIYAASSLQRGVPSRFSGSGSGTDFTLTISSLQPEDFATYFCQQANSFPFTFGPGTKVDIK"
> 64 1:n dilution of supernatant,,"human anti-EPO-R antibody expressed by the cell line designated ABT2-SCX-145 (antibody, human IgG2, V domains shown, also called Ab145) VH: QVQLVESGGGVVQPGRSLRLSCAASGFTFSSYGMHWVRQAPGKGLEWVAVISYDGSNKYYADSVKGRFTISRDNSKNTLYLQMNSLRVEDTAVYYCARDHGGRYVYDYGMDVWGQGTTVTVSS VL: DIQMTQSPSSVSASVGDRVSITCRASQGIGSWLAWYQQKPGQAPTLLIYAASSLQRGVPSRFSGSGSGTDFTLTINSLQPEDFATYFCQQANSFPFTFGPGTKVDVK"
> 64 1:n dilution of supernatant,,"human anti-EPO-R antibody expressed by the cell line designated ABT2-SCX-267 (antibody, human IgG2, V domains shown, also called Ab267) VH: QVQLVESGGGVVQPGRSLRLSCAASGFTFSSYGMHWVRQAPGKGLEWVAVISYDGSNKYYADSVKGRFTISRDNSKNTLYLQMNSLRVEDTAVYYCAKDHGGRYVYDYGMDVWGQGTTVTVSS VL: DIQMTQSPSSVSASVGDRVSITCRASQGIGSWLAWYQQKPGQAPTLLIYAASSLQRGVPSRFSGSGSGTDFTLTINSLQPEDFATYFCQQANSFPFTFGPGTKVDVK"
> 64 1:n dilution of supernatant,,"human anti-EPO-R antibody expressed by the cell line designated ABT2-SCX-102 (antibody, human IgG2, V domains shown, also called Ab102) VH: QVQLVESGGGVVQPGRSLRLSCAASGFTFSSYGMHWVRQAPGKGLEWVAVISYDGSNKYYADSVKGRFTISRDNSKNTLYLQMNSLRVEDTAVYYCARDHGGRYVYDYGMDVWGQGTTVTVSS VL: DIQMTQSPSSVSASVGDRVSITCRASQGISSWLAWYQQKPGKAPKRLIYAASSLQRGVPSRFSGSGSGTDFTLTISSLQPEDFATYFCQQANSFPFTFGPGTKVDIK"
